According to publication PMC3665890:

Target: FITC-conjugated Mouse transferrin (UniProt Q921I1)
Assay: flow cytometry on cells
Conditions: read off a plot

Sequence of UniProt Q921I1 (Q921I1 whole entry, looked up): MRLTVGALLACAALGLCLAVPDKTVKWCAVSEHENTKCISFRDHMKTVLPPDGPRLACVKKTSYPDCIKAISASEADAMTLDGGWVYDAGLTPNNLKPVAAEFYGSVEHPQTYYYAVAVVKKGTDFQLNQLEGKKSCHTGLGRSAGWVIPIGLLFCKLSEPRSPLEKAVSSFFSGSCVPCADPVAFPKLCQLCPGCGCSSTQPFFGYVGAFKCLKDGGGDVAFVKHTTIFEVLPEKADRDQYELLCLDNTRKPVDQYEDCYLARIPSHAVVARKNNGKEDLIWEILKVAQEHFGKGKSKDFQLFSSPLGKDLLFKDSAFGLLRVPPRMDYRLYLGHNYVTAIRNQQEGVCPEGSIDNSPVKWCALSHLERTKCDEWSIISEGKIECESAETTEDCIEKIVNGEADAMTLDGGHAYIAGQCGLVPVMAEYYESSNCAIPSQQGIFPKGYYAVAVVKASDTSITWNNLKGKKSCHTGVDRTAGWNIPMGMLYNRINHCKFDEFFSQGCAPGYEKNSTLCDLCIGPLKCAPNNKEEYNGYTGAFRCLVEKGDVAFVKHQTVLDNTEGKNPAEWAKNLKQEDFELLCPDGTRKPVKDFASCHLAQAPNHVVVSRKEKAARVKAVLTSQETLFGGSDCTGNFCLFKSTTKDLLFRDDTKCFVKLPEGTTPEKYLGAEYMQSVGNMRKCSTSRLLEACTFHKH

house mouse (Mus musculus) TfR1, wild type, C-terminal FLAG (from UniProt Q62351) A296S; R569I; A575L
response (parent: est. 1100): 910 m.f.i.

zygodont (Zygodontomys brevicauda) TfR1, wild type, C-terminal FLAG S296A; N569R; S575A
response (MDCK cells stably expressing TfR1-FLAG, incubated with media containing FITC-labeled iron-loaded mouse transferrin, three replicates, parent: est. 580): 590 m.f.i.
